From patent US20130084293A1 (LA JOLLA INSTITUTE FOR ALLERGY AND IMMUNOLOGY, published 2013)

Molecular target: the molecule itself
Assay: self-association: reducing and non-reducing SDS-PAGE and size exclusion chromatography of purified mHRF-His6

B1: C-terminally hexahistidine-tagged mouse HRF (mHRF-His6) (ligand)
chain: MIIYRDLISHDELFSDIYKIREIADGLCLEVEGKMVSRTEGAIDDSLIGGNASAEGPEGEGTESTVVTGVDIVMNHHLQETSFTKEAYKKYIKDYMKSLKGKLEEQKPERVKPFMTGAAEQIKHILANFNNYQFFIGENMNPDGMVALLDYREDGVTPFMIFFKDGLEMEKCHHHHHH
notes: Expressed in E. coli BL21(DE3) from pET-24a(+)
binding result: binds
